# Source: patent US20090298765A1 (Takeda / Millennium, published 2009)
# Read-outs that look alike come from different tables or passages of the source. Starred links: 1 amine or outer side, 2 acyl side, 3 side chain; linkers in the order of their positions; H or OH if unused. Non-standard residues stand in square brackets, D forms with d. No end group written: not given here. *: point of attachment. Ala(2-Qui) = 2-quinolylalanine, O=C([C@H](Cc1ccc2ccccc2n1)N[*:1])[*:2]; Arg(Me) = CNC(=N)NCCC[C@H](N)C(=O)O; Fmoc = O=C(OCC1c2ccccc2-c2ccccc21)*; Lys(Me2) = CN(C)CCCC[C@H](N)C(=O)O; Abu = CC[C@H](N)C(=O)O; azaGly = NNC(=O)O
# B1: [D-Tyr1,Thr5,Arg(Me)9]MS10 (peptide)
# peptide: [dY]NWNTFGL[Arg(Me)]F-NH2
# modifications: N-terminus assumed
# SMILES: CNC(=N)NCCC[C@H](NC(=O)[C@H](CC(C)C)NC(=O)CNC(=O)[C@H](Cc1ccccc1)NC(=O)[C@@H](NC(=O)[C@H](CC(N)=O)NC(=O)[C@H](Cc1c[nH]c2ccccc12)NC(=O)[C@H](CC(N)=O)NC(=O)[C@H](N)Cc1ccc(O)cc1)[C@@H](C)O)C(=O)N[C@@H](Cc1ccccc1)C(N)=O
# notes: also called Compound No. 211
# B2: [D-Tyr1,Ala5,Arg(Me)9]MS10 (peptide)
# peptide: [dY]NWNAFGL[Arg(Me)]F-NH2
# modifications: N-terminus assumed
# SMILES: CNC(=N)NCCC[C@H](NC(=O)[C@H](CC(C)C)NC(=O)CNC(=O)[C@H](Cc1ccccc1)NC(=O)[C@H](C)NC(=O)[C@H](CC(N)=O)NC(=O)[C@H](Cc1c[nH]c2ccccc12)NC(=O)[C@H](CC(N)=O)NC(=O)[C@H](N)Cc1ccc(O)cc1)C(=O)N[C@@H](Cc1ccccc1)C(N)=O
# B3: [D-Tyr1,Ile3,Arg(Me)9]MS10 (peptide)
# peptide: [dY]NINSFGL[Arg(Me)]F-NH2
# modifications: N-terminus assumed
# SMILES: CC[C@H](C)[C@H](NC(=O)[C@H](CC(N)=O)NC(=O)[C@H](N)Cc1ccc(O)cc1)C(=O)N[C@@H](CC(N)=O)C(=O)N[C@@H](CO)C(=O)N[C@@H](Cc1ccccc1)C(=O)NCC(=O)N[C@@H](CC(C)C)C(=O)N[C@@H](CCCNC(=N)NC)C(=O)N[C@@H](Cc1ccccc1)C(N)=O
# notes: also called Compound No. 206
# B4: [D-Tyr1,Ala4,Arg(Me)9]MS10 (peptide)
# peptide: [dY]NWASFGL[Arg(Me)]F-NH2
# modifications: N-terminus assumed
# SMILES: CNC(=N)NCCC[C@H](NC(=O)[C@H](CC(C)C)NC(=O)CNC(=O)[C@H](Cc1ccccc1)NC(=O)[C@H](CO)NC(=O)[C@H](C)NC(=O)[C@H](Cc1c[nH]c2ccccc12)NC(=O)[C@H](CC(N)=O)NC(=O)[C@H](N)Cc1ccc(O)cc1)C(=O)N[C@@H](Cc1ccccc1)C(N)=O
# notes: also called Compound No. 210
# B5: [D-Tyr1,Arg(Me)9,Trp10]MS10 (peptide)
# peptide: [dY]NWNSFGL[Arg(Me)]W-NH2
# modifications: N-terminus assumed
# SMILES: CNC(=N)NCCC[C@H](NC(=O)[C@H](CC(C)C)NC(=O)CNC(=O)[C@H](Cc1ccccc1)NC(=O)[C@H](CO)NC(=O)[C@H](CC(N)=O)NC(=O)[C@H](Cc1c[nH]c2ccccc12)NC(=O)[C@H](CC(N)=O)NC(=O)[C@H](N)Cc1ccc(O)cc1)C(=O)N[C@@H](Cc1c[nH]c2ccccc12)C(N)=O
# notes: also called Compound No. 174
# B6: [Ala(2-Qui)10]MS10 (peptide)
# peptide: YNWNSFGLR[Ala(2-Qui)]-NH2
# modifications: N-terminus assumed
# SMILES: CC(C)C[C@H](NC(=O)CNC(=O)[C@H](Cc1ccccc1)NC(=O)[C@H](CO)NC(=O)[C@H](CC(N)=O)NC(=O)[C@H](Cc1c[nH]c2ccccc12)NC(=O)[C@H](CC(N)=O)NC(=O)[C@@H](N)Cc1ccc(O)cc1)C(=O)N[C@@H](CCCNC(=N)N)C(=O)N[C@@H](Cc1ccc2ccccc2n1)C(N)=O
# notes: also called Compound No. 201
# B7: des(1)-[D-Tyr2,AzaGly7,Arg(Me)9]MS10 (peptide)
# peptide: [dY]WNSF[azaGly]L[Arg(Me)]F-NH2
# modifications: N-terminus assumed
# SMILES: CNC(=N)NCCC[C@H](NC(=O)[C@H](CC(C)C)NC(=O)NNC(=O)[C@H](Cc1ccccc1)NC(=O)[C@H](CO)NC(=O)[C@H](CC(N)=O)NC(=O)[C@H](Cc1c[nH]c2ccccc12)NC(=O)[C@H](N)Cc1ccc(O)cc1)C(=O)N[C@@H](Cc1ccccc1)C(N)=O
# notes: also called Compound No. 222
# B8: des(1)-[D-Tyr2,D-Trp3,AzaGly7,Arg(Me)9]MS10 (peptide)
# peptide: [dY][dW]NSF[azaGly]L[Arg(Me)]F-NH2
# modifications: N-terminus assumed
# SMILES: CNC(=N)NCCC[C@H](NC(=O)[C@H](CC(C)C)NC(=O)NNC(=O)[C@H](Cc1ccccc1)NC(=O)[C@H](CO)NC(=O)[C@H](CC(N)=O)NC(=O)[C@@H](Cc1c[nH]c2ccccc12)NC(=O)[C@H](N)Cc1ccc(O)cc1)C(=O)N[C@@H](Cc1ccccc1)C(N)=O
# notes: also called Compound No. 242
# B9: [D-Tyr1,Ala7,Arg(Me)9]MS10 (Compound No. 173) (peptide)
# peptide: [dY]NWNSFAL[Arg(Me)]F-NH2
# modifications: N-terminus assumed
# SMILES: CNC(=N)NCCC[C@H](NC(=O)[C@H](CC(C)C)NC(=O)[C@H](C)NC(=O)[C@H](Cc1ccccc1)NC(=O)[C@H](CO)NC(=O)[C@H](CC(N)=O)NC(=O)[C@H](Cc1c[nH]c2ccccc12)NC(=O)[C@H](CC(N)=O)NC(=O)[C@H](N)Cc1ccc(O)cc1)C(=O)N[C@@H](Cc1ccccc1)C(N)=O
# B10: des(1)-[D-Tyr2,Arg(Me)9]MS10 (peptide)
# peptide: [dY]WNSFGL[Arg(Me)]F-NH2
# modifications: N-terminus assumed
# SMILES: CNC(=N)NCCC[C@H](NC(=O)[C@H](CC(C)C)NC(=O)CNC(=O)[C@H](Cc1ccccc1)NC(=O)[C@H](CO)NC(=O)[C@H](CC(N)=O)NC(=O)[C@H](Cc1c[nH]c2ccccc12)NC(=O)[C@H](N)Cc1ccc(O)cc1)C(=O)N[C@@H](Cc1ccccc1)C(N)=O
# notes: also called Compound No. 217
# B11: [Abu8]MS10 (peptide)
# peptide: YNWNSFG[Abu]RF-NH2
# modifications: N-terminus assumed
# SMILES: CC[C@H](NC(=O)CNC(=O)[C@H](Cc1ccccc1)NC(=O)[C@H](CO)NC(=O)[C@H](CC(N)=O)NC(=O)[C@H](Cc1c[nH]c2ccccc12)NC(=O)[C@H](CC(N)=O)NC(=O)[C@@H](N)Cc1ccc(O)cc1)C(=O)N[C@@H](CCCNC(=N)N)C(=O)N[C@@H](Cc1ccccc1)C(N)=O
# notes: also called Compound No. 187
# B12: Metastin (peptide)
# peptide: GTSLSPPPESSGSRQQPGLSAPHSRQIPAPQGAVLVQREKDLPNYNWNSFGLRF
# Columns and labels:
# [1] = target: T1, human OT7T175 (metastin receptor) (human, UniProt Q969F8 1-398); test: cell-based or functional assay
# [2] = target: T1, human OT7T175 (metastin receptor); test: competition with Cy-5 metastin (40-54) on hOT7T175-CHO cells, FMAT
# [3] = target: T1, human OT7T175 (metastin receptor); test: cell-based or functional assay; remark: listed apart in the source
# [4] = target: T1, human OT7T175 (metastin receptor); test: cell-based or functional assay; remark: listed apart in the source
# T1 sequence (Q969F8 whole entry L364H): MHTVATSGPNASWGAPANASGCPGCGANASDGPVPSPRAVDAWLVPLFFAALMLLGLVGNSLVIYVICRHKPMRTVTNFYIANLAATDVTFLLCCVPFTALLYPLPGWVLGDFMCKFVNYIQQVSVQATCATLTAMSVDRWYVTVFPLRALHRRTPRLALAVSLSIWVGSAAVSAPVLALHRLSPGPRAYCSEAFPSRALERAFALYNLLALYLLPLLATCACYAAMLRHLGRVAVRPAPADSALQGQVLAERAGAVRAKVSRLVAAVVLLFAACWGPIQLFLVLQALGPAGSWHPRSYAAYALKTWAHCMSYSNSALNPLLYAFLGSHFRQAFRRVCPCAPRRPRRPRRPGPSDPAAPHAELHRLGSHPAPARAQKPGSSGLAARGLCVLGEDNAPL
binder,measurement,setting,value
"[dY][dW]NSFGL[Arg(Me)]F-NH2 (also called Compound No. 224) [des(1)-[D-Tyr2,D-Trp3,Arg(Me)9]MS10]",Ca ion level-increasing activity (FLIPR),[1],2 x Metastin (1-54)
same,IC50,[2],140 nM
YNWNSFALRF-NH2 (also called Compound No. 50) [[Ala7]MS10],Ca ion level-increasing activity (FLIPR),[3],30 x Metastin (1-54)
same,IC50,[2],190 nM
DNWNSFGLRF-NH2 (also called Compound No. 75) [[Asp1]MS10],Ca ion level-increasing activity (FLIPR),[3],1 x Metastin (1-54)
same,IC50,[2],880 nM
B1,Ca ion level-increasing activity (FLIPR),[1],10 x Metastin (1-54)
same,"Ca ion level-increasing activity (FLIPR, 40 s)",[4],1.3 EC50/MS10 EC50
same,IC50,[2],44 nM
B2,Ca ion level-increasing activity (FLIPR),[1],10 x Metastin (1-54)
same,"Ca ion level-increasing activity (FLIPR, 40 s)",[4],1.1 EC50/MS10 EC50
same,IC50,[2],36 nM
B3,Ca ion level-increasing activity (FLIPR),[1],10 x Metastin (1-54)
same,"Ca ion level-increasing activity (FLIPR, 40 s)",[4],4.8 EC50/MS10 EC50
same,IC50,[2],85 nM
B4,Ca ion level-increasing activity (FLIPR),[1],1 x Metastin (1-54)
same,"Ca ion level-increasing activity (FLIPR, 40 s)",[4],9.3 EC50/MS10 EC50
same,IC50,[2],730 nM
"[dY]NWTSFGL[Arg(Me)]F-NH2 (also called Compound No. 208) [[D-Tyr1,Thr4,Arg(Me)9]MS10]",Ca ion level-increasing activity (FLIPR),[1],1 x Metastin (1-54)
same,"Ca ion level-increasing activity (FLIPR, 40 s)",[4],7.3 EC50/MS10 EC50
same,IC50,[2],830 nM
B5,Ca ion level-increasing activity (FLIPR),[1],10 x Metastin (1-54)
same,"Ca ion level-increasing activity (FLIPR, 40 s)",[4],2.3 EC50/MS10 EC50
same,IC50,[2],420 nM
B6,Ca ion level-increasing activity (FLIPR),[1],1 x Metastin (1-54)
same,IC50,[2],820 nM
"[dY]NWNSF[azaGly]L[Arg(Me)]F-NH2 (also called Compound No. 232) [[D-Tyr1,AzaGly7,Arg(Me)9]MS10]",Ca ion level-increasing activity (FLIPR),[1],3 x Metastin (1-54)
same,"Ca ion level-increasing activity (FLIPR, 40 s)",[4],3.9 EC50/MS10 EC50
same,IC50,[2],49 nM
"YNWNSXGLRF (D-Tyr1; Cha6; Arg(Me)9; C-terminal amide) [[D-Tyr1,Cha6,Arg(Me)9]MS10 (Compound No. 172)]",Ca ion level-increasing activity (FLIPR),[3],1 x Metastin (1-54)
B7,Ca ion level-increasing activity (FLIPR),[1],10 x Metastin (1-54)
same,"Ca ion level-increasing activity (FLIPR, 40 s)",[4],2.7 EC50/MS10 EC50
same,IC50,[2],33 nM
SNWNSFGLRF-NH2 [[Ser1]MS10],Ca ion level-increasing activity (FLIPR),[3],1 x Metastin (1-54)
YKWNSFGLRF-NH2 [[Lys2]MS10],Ca ion level-increasing activity (FLIPR),[3],1 x Metastin (1-54)
B8,Ca ion level-increasing activity (FLIPR),[1],2 x Metastin (1-54)
same,"Ca ion level-increasing activity (FLIPR, 40 s)",[4],1.4 EC50/MS10 EC50
same,IC50,[2],70 nM
Fmoc-NWNSFGLRF-NH2 [des(1)-Fmoc-MS10],Ca ion level-increasing activity (FLIPR),[3],5 x Metastin (1-54)
YNWNSFGARF-NH2 [[Ala8]MS10],Ca ion level-increasing activity (FLIPR),[3],1 x Metastin (1-54)
YNWNSFGL[Lys(Me2)]F-NH2 [[Lys(Me2)9]MS10],Ca ion level-increasing activity (FLIPR),[3],0.5 x Metastin (1-54)
B9,Ca ion level-increasing activity (FLIPR),[3],1 x Metastin (1-54)
B10,Ca ion level-increasing activity (FLIPR),[1],20 x Metastin (1-54)
same,"Ca ion level-increasing activity (FLIPR, 40 s)",[4],3.1 EC50/MS10 EC50
same,IC50,[2],250 nM
"[dY]TNSF[azaGly]L[Arg(Me)]F-NH2 (also called Compound No. 241) [des(1)-[D-Tyr2,Thr3,AzaGly7,Arg(Me)9]MS10]",Ca ion level-increasing activity (FLIPR),[1],1 x Metastin (1-54)
same,"Ca ion level-increasing activity (FLIPR, 40 s)",[4],5.3 EC50/MS10 EC50
same,IC50,[2],56 nM
B11,Ca ion level-increasing activity (FLIPR),[1],1 x Metastin (1-54)
same,"Ca ion level-increasing activity (FLIPR, 40 s)",[4],1.9 EC50/MS10 EC50
same,IC50,[2],720 nM
Fmoc-NSFGLRF-NH2 [des(1-3)-Fmoc-MS10],Ca ion level-increasing activity (FLIPR),[3],1 x Metastin (1-54)
Fmoc-NSFGL[Arg(Me)]F-NH2 [des(1-3)-Fmoc-[Arg(Me)9]MS10],Ca ion level-increasing activity (FLIPR),[3],1 x Metastin (1-54)
B12,Ca ion level-increasing activity (FLIPR),[3],1 x Metastin (1-54)
"YNWNSXGLRF (D-Tyr1; Cha6; Arg(Me)9; C-terminal amide, also called Compound No. 203) [[D-Tyr1,Cha6,Arg(Me)9]MS10]",Ca ion level-increasing activity (FLIPR),[1],10 x Metastin (1-54)
same,IC50,[2],37 nM
YNWNSFGLRX (Hph10; C-terminal amide) [[Hph10]MS10],Ca ion level-increasing activity (FLIPR),[3],1 x Metastin (1-54)
KNWNSFGLRF-NH2 [[Lys1]MS10],Ca ion level-increasing activity (FLIPR),[3],1 x Metastin (1-54)
